In patent US5969107:
Where “and” joins values, the source holds several entries; their conditions need not be identical. Identical values can stand only once. Values belong to the binder of their own block, whether it stands above or below them.

Tests used:
[1] = molecular target: murine monoclonal anti-EGFR antibody mAb 425 (ATCC HB 9629); assay: competition ELISA in solution by the method of Friguet, Scatchard plot
[2] = molecular target: Anti-EGFR Ab3 sera from Balb/c and B6D2F1 mice; assay: inhibition ELISA: anti-EGFR Ab3 sera preincubated with the Anti-Id, then on coated sEGFR
[3] = molecular target: murine monoclonal anti-EGFR antibody mAb 425 (ATCC HB 9629); assay: inhibition CellELISA on fixed A431 cells; reference 5A6 and 3B6

Kd [1]: 0.3 nM
percentage of inhibition [2]: 15% and 35%
times more effective in inhibition than 5A6 and 3B6 [3]: 10 times
B1: 15H8 monoclonal anti-idiotypic antibody (Ab2) (antibody, V domains shown)
VH: EVQLVESGGGLVKPGGSLKLSCAASGFTFSDYYMYWFRQHPGKRLEWVATISDAGTYTYYPDSLKGRFTISRDNAKNNLYLQMSSLKSEDTAMYFCARDGAARTSSQVYYYGMDYWGQGTSVTVSS
VL: DIVMTQSQKFMSTSVGDRVSITCKASQNVRTAVAWYQQKPGQSPKALIYLASNRHTGVPDRFTGSGSGTDFTLTISNVQSEDLADYFCLQHWNYPLTFGSGTKLEIKR

Kd [1]: 1 nM
percentage of inhibition [2]: 100%
B2: 5A6 monoclonal anti-idiotypic antibody (Ab2) (antibody, V domains shown)
VH: DVKLVESGGGLVKLGGSLKLSCAASGFTFSNYYMSWVRQTPEKRLEFVAAINSNGGSTYYPDTVKGRFTISRDNAKNTLYLQMSSLKSEDTALYYCARHRGRDSSGYVGYAIDYWGQGTSVTVSS
VL: DILLTQSPAILSVSPGERVSFSCRASQSIGTSIHWYQQRTNGSPRLLISILLSLSLGVPSRFSGSGSGTDFTLSINSVESEDIADYYCQQSNSWPYTFGGGTKLEIKR
